Source: the supplement of paper PMC12783771
± gives the standard deviation of the averaged measurements.

B1: library; a variant is named by its letters at X, in order (parent)
chain: MNIQIGELAKRTACPVVTIRFYEQEGLLPPPGRSRGNFRLYGEEHVERLQFIRHCRSLDMPLSXVRTLLSYRKRPDQDCGEVXMLLDEHXRQVESRIGALLELXHXLVELREACSGARPAQSCGILQGLSDCVCDTRGTTAHXSD

Experiments:
[1] = variants of: B1; experiment: sfGFP reporter fluorescence (15 h) (µM FITC); higher = higher leak; conditions: library round: Round 3b; ligand: none
Method: (§1)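 Cell-free biosensing: 1 µL Echo-assembled CFE reactions with linear PbrR variant templates (5 nM) and pPbrR-sfGFP reporter, with 1 µM Pb, 30 µM Zn or no ligand; endpoint sfGFP fluorescence after 15 h at 30 °C calibrated as µM FITC. Round 3b rational combinatorial PbrR mutants; 3 biological replicates.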

[2] = variants of: B1; experiment: sfGFP reporter fluorescence (15 h) (µM FITC); higher = stronger transcriptional activation; conditions: library round: Round 3b
Method: as §1

Row | Variant | sfGFP reporter fluorescence [1] | sfGFP reporter fluorescence ([2]; ligand: 1 µM Pb) | sfGFP reporter fluorescence ([2]; ligand: 30 µM Zn)
1 | MNIQIGELAKRTACPVVTIRFYEQEGLLPPPGRSRGNFRLYGEEHVERLQFIRHCRSLDMPLSDVRTLLSYRKRPDQDCGEVFMLLDEHARQVESRIGALLELVHELVELREACSGARPAQSCGILQGLSDCVCDTRGTTAHRSD [DFAVER] | 0.0402 ± 0.0024 | 0.0506 ± 0.0017 | 0.0474 ± 0.0015
2 | MNIQIGELAKRTACPVVTIRFYEQEGLLPPPGRSRGNFRLYGEEHVERLQFIRHCRSLDMPLSDVRTLLSYRKRPDQDCGEVFMLLDEHARQVESRIGALLELVHELVELREACSGARPAQSCGILQGLSDCVCDTRGTTAHTSD [DFAVET] | 0.0447 ± 0.00067 | 0.051 ± 0.0039 | 0.0469 ± 0.00097
3 | MNIQIGELAKRTACPVVTIRFYEQEGLLPPPGRSRGNFRLYGEEHVERLQFIRHCRSLDMPLSKVRTLLSYRKRPDQDCGEVFMLLDEHIRQVESRIGALLELKHALVELREACSGARPAQSCGILQGLSDCVCDTRGTTAHTSD [KFIKAT] | 0.0418 ± 0.0013 | 0.169 ± 0.015 | 0.0513 ± 0.0024
4 | MNIQIGELAKRTACPVVTIRFYEQEGLLPPPGRSRGNFRLYGEEHVERLQFIRHCRSLDMPLSDVRTLLSYRKRPDQDCGEVFMLLDEHARQVESRIGALLELVHHLVELREACSGARPAQSCGILQGLSDCVCDTRGTTAHRSD [DFAVHR] | 0.0438 ± 0.0023 | 0.059 ± 0.0031 | 0.0519 ± 0.0031
5 | MNIQIGELAKRTACPVVTIRFYEQEGLLPPPGRSRGNFRLYGEEHVERLQFIRHCRSLDMPLSDVRTLLSYRKRPDQDCGEVFMLLDEHARQVESRIGALLELVHHLVELREACSGARPAQSCGILQGLSDCVCDTRGTTAHTSD [DFAVHT] | 0.0401 ± 0.0051 | 0.0539 ± 0.001 | 0.0473 ± 0.0027
6 | MNIQIGELAKRTACPVVTIRFYEQEGLLPPPGRSRGNFRLYGEEHVERLQFIRHCRSLDMPLSKVRTLLSYRKRPDQDCGEVFMLLDEHARQVESRIGALLELVHHLVELREACSGARPAQSCGILQGLSDCVCDTRGTTAHPSD [KFAVHP] | 0.0477 ± 0.002 | 0.656 ± 0.07 | 0.198 ± 0.014
7 | MNIQIGELAKRTACPVVTIRFYEQEGLLPPPGRSRGNFRLYGEEHVERLQFIRHCRSLDMPLSKVRTLLSYRKRPDQDCGEVFMLLDEHARQVESRIGALLELVHHLVELREACSGARPAQSCGILQGLSDCVCDTRGTTAHRSD [KFAVHR] | 0.0469 ± 0.0029 | 0.631 ± 0.038 | 0.171 ± 0.017
8 | MNIQIGELAKRTACPVVTIRFYEQEGLLPPPGRSRGNFRLYGEEHVERLQFIRHCRSLDMPLSKVRTLLSYRKRPDQDCGEVFMLLDEHARQVESRIGALLELVHHLVELREACSGARPAQSCGILQGLSDCVCDTRGTTAHTSD [KFAVHT] | 0.0459 ± 0.0029 | 0.632 ± 0.071 | 0.179 ± 0.029
9 | MNIQIGELAKRTACPVVTIRFYEQEGLLPPPGRSRGNFRLYGEEHVERLQFIRHCRSLDMPLSKVRTLLSYRKRPDQDCGEVFMLLDEHIRQVESRIGALLELKHELVELREACSGARPAQSCGILQGLSDCVCDTRGTTAHTSD [KFIKET] | 0.0439 ± 0.002 | 0.135 ± 0.0014 | 0.0531 ± 0.0027
10 | MNIQIGELAKRTACPVVTIRFYEQEGLLPPPGRSRGNFRLYGEEHVERLQFIRHCRSLDMPLSKVRTLLSYRKRPDQDCGEVFMLLDEHIRQVESRIGALLELKHELVELREACSGARPAQSCGILQGLSDCVCDTRGTTAHRSD [KFIKER] | 0.0412 ± 0.0027 | 0.147 ± 0.0078 | 0.0496 ± 0.0038
11 | MNIQIGELAKRTACPVVTIRFYEQEGLLPPPGRSRGNFRLYGEEHVERLQFIRHCRSLDMPLSKVRTLLSYRKRPDQDCGEVFMLLDEHARQVESRIGALLELVHELVELREACSGARPAQSCGILQGLSDCVCDTRGTTAHTSD [KFAVET] | 0.0489 ± 0.0017 | 0.41 ± 0.071 | 0.0549 ± 0.0017
12 | MNIQIGELAKRTACPVVTIRFYEQEGLLPPPGRSRGNFRLYGEEHVERLQFIRHCRSLDMPLSKVRTLLSYRKRPDQDCGEVFMLLDEHARQVESRIGALLELVHELVELREACSGARPAQSCGILQGLSDCVCDTRGTTAHPSD [KFAVEP] | 0.0452 ± 0.0037 | 0.533 ± 0.03 | 0.0557 ± 0.0048
13 | MNIQIGELAKRTACPVVTIRFYEQEGLLPPPGRSRGNFRLYGEEHVERLQFIRHCRSLDMPLSKVRTLLSYRKRPDQDCGEVFMLLDEHARQVESRIGALLELVHELVELREACSGARPAQSCGILQGLSDCVCDTRGTTAHRSD [KFAVER] | 0.0512 ± 0.0022 | 0.51 ± 0.029 | 0.056 ± 0.0049
14 | MNIQIGELAKRTACPVVTIRFYEQEGLLPPPGRSRGNFRLYGEEHVERLQFIRHCRSLDMPLSKVRTLLSYRKRPDQDCGEVFMLLDEHIRQVESRIGALLELTHALVELREACSGARPAQSCGILQGLSDCVCDTRGTTAHPSD [KFITAP] | 0.0485 ± 0.0052 | 0.302 ± 0.022 | 0.0642 ± 0.0032
